The values below come from patent US20240366775A1 (PEPTIDREAM, published 2024).

B1: pembrolizumab (Selleck Biotech Co., Ltd., Cat. No. A2005) (antibody, V domains shown)
VH: QVQLVQSGVEVKKPGASVKVSCKASGYTFTNYYMYWVRQAPGQGLEWMGGINPSNGGTNFNEKFKNRVTLTTDSSTTTAYMELKSLQFDDTAVYYCARRDYRFDMGFDYWGQGTTVTVSS
VL: EIVLTQSPATLSLSPGERATLSCRASKGVSTSGYSYLHWYQQKPGQAPRLLIYLASYLESGVPARFSGSGSGTDFTLTISSLEPEDFAVYYCQHSRDLPLTFGGGTKVEIKR
B2: ipilimumab (Selleck Biotech Co., Ltd., Cat. No. A2001) (antibody, V domains shown)
VH: QVQLVESGGGVVQPGRSLRLSCAASGFTFSSYTMHWVRQAPGKGLEWVTFISYDGNNKYYADSVKGRFTISRDNSKNTLYLQMNSLRAEDTAIYYCARTGWLGPFDYWGQGTLVTVSS
VL: not shown
B3: nivolumab (Selleckchem, Cat. No. A2002) (antibody, V domains shown)
VH: QVQLVESGGGVVQPGRSLRLDCKASGITFSNSGMHWVRQAPGKGLEWVAVIWYDGSKRYYADSVKGRFTISRDNSKNTLFLQMNSLRAEDTAVYYCATNDDYWGQGTLVTVSS
VL: EIVLTQSPATLSLSPGERATLSCRASQSVSSYLAWYQQKPGQAPRLLIYDASNRATGIPARFSGSGSGTDFTLTISSLEPEDFAVYYCQQSSNWPRTFGQGTKVEIK

The target of the experiment is T1, recombinant hTfR described in Example 2 of WO2018/124121, random biotinylated (human, UniProt P02786 89-760, randomly biotinylated with NHS-PEG4-Biotin).
T1 construct: held on a streptavidin plate for ELISA; also called human TfR
T1 sequence (P02786 89-760 limits assumed): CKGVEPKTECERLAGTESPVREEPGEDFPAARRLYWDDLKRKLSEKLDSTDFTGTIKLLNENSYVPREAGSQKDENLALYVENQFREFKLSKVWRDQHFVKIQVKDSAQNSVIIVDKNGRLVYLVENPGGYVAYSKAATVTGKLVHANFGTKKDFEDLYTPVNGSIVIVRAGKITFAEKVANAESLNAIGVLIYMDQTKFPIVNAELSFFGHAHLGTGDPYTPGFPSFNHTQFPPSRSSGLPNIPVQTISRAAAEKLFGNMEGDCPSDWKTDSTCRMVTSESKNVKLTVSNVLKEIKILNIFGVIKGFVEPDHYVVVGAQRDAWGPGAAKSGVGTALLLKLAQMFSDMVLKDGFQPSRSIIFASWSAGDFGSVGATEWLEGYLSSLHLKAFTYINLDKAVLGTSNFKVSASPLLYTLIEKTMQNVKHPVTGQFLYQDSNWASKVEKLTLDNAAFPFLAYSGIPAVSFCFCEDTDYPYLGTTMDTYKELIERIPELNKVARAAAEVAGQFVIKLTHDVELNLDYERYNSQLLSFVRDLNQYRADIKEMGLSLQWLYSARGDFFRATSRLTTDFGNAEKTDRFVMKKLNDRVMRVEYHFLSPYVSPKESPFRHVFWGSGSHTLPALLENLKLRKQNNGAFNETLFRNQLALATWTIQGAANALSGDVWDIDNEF
As to the kind of experiment: ELISA, target on streptavidin plate, sample at 100 nM, anti-human IgG-HRP. (In general: In an ELISA, binding on a coated surface is turned into a signal by an enzyme label.)
With B1, the “Abs450 nm at 100 nM” value was 0.041 Abs450 nm.

B2: the “Abs450 nm at 100 nM” value turned out to be 0.0435 Abs450 nm.

On to B3, for which the “Abs450 nm at 100 nM” value worked out at 0.049 Abs450 nm.
